Test results reported in publication PMC3820547 (2013).

B1: Replication Protein A (Q9V1Z1, Q9V1Y9, Q9V1Z0), His-tagged RPA complex (complex)
chain 1: MVNVKNRNILRYSKVVDMTVLTKDRIIEIIERKTGMSREEIEEEIRKIMEEDPYLSEQGAAALLAERLGIDLIEKEEVSLMRISELYPGMDPREVNVVGRVLKKYPPREYTRKDGSVGRVASLIIYDDSGRARVVLWDAKVSEYYNKIEVGDVIKVLDAQVKESLSGLPELHINFRARIILNPDDPRVEMIPPLEEVRVATYTRKKIKDIEAGDRFVEVRGTIAKVYRVLTYDACPECKKKVDYDEGLGVWICPEHGEVQPIKMTILDFGLDDGTGYIRVTLFGDDAEELLGVSPEEIAEKIKELEESGLTTKEAARKLAEDEFYNIIGREIVVRGNVIEDRFLGLILRASSWEDVDYRREIERIKEELEKLGVM
chain 2: MVIEMKKRMPATRLYIKDILEGYFVKSEGDFEPNYLITKYARKVYRAKIVGTVVREPLIAEDETYGKFQVDDGTGVIWVLGFRDDTKFAKLVRKGDLVQVIGKIAEWRDDKQILVEGVSKVHPNMWILHRYETLKEKIEHIKKAKIALEIYNQYGITAKSKVIAKNKGIEEELLEVIDELYGIMMEERSIEEPMEELLEEEIPEEKEENELLEKAKEDILNILRQKRTAISRKYILKKLGDKYDEETIDDAITELLAQGEIYEPETGYYKLL
chain 3: MEVQVRRRKPAVERKISEIREEDTRVSLIGRVIKVDKMDYMFWLDDGTGVAIIESESDLPKVGQVVRVIGRIIRNEEGIHIYAEVIQDFSDADLEALEEIRELERKLLPRLEGEIVW

Legend:
Experiment in all cases: SPR; RPA bound to 32mer ssDNA
[1] = target: B1
[2] = target: B1
[3] = target: T1, DNA Polymerase D (Q9V2F3, Q9V2F4), HIS-tagged complex (Pyrococcus abyssi, UniProt Q9V2F3 1-619; Q9V2F4 1-1455)
[4] = target: T1, DNA Polymerase D (Q9V2F3, Q9V2F4), …; remark: listed apart in the source

Row | Binder | Kd [1] | koff [2] | Kd [3] | koff [4]
1 | Primase small subunit P41 (Q9V292), HIS-tagged (natural protein) MLLREVTKEERKEFYSNEWNAKQIPDFILQNLDKREFGFDHTGEGPSDRKNSYTDVRDLEDYIKATAPYAVYSSVAFYEKPQEMEGWLGAELVFDIDAKDLPLRRCNHEPGKVCPICLNDAKEIARDTLIVLKEELGFEDVHVVYSGRGYHIRVMDGWALSLDSKSRERILSFISASEIEDHSEFRKMLLERRGWFVLNHGYPRVFRLRFGYFILRVKVEHLINFGIRKNIAKRILDNKETIYEEFVRKGILAAFPDGVGIESLAKLFALSTRFSKAYFDGRVTVDLKRILRLPSTLHSKVGLIAKYIGNNERDVMRFNPFKHAVPKFRRKEVKEEYKRFLEENF | 52 nM | 0.000454 s⁻¹ | – | –
2 | B1 | – | – | 51 nM | 0.000202 s⁻¹
